± gives the uncertainty stated by the source.
Experiment: self-splicing fitness, log relative to wild type (ln ratio); higher = more splicing; Tetrahymena group I intron in knt gene, E. coli kanamycin selection, DiMSum; sequences stand for … in CUCUCU…GGAGGGAAAAGUUAUCAGGCAUGCACCUGGUAGCUAGUCUUUAAACCAAUAGAUUGCAUCGGUUUAAAAGGCAAGACCGUCAAAUUGCGGGAAAGGGGUCAACAGCCGUUCAGUACCAAGUCUCAGGGGAAACUUUGAGAUGGCCUUGCAAAGGGUAUGGUAAUAAGCUGACGGACAUGGUCCUAACCACGCAGCCAAGUCCUAAGUCAACAGAUCUUCUGUUGAUAUGGAUGCAGUUCACAGACUAAAUGUCGGUCGGGGAAGAUGUAUUCUUCUCAUAAGAUAUAGUCGGACCUCUCCUUAAUGGGAGCUAGCGGAUGAAGUGAUGCAACACUGGAGCCGCUGGGAACUAAUUUGUAUGCGAAAGUAUAUUGAUUAGUUUUGGAGUACUCGUGGUCG
Procedure, shortened: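 Pooled colonies went to amplicon sequencing on an Illumina HiSeq 2500 after six replicate transformations. The plates were LB agar with 100 μg/mL carbenicillin, 50 μM IPTG and 0.2% rhamnose, with or without 25 μg/mL kanamycin, incubated overnight at 37°C or 30°C. The E. coli BL21(DE3) library had all eight P1ex-region intron nucleotides randomised, the intron placed in the knt kanamycin-resistance gene on pET-22b(+). DiMSum fitness is the error-weighted combination of replicate fold changes, kanamycin against none, normalised to wild type.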

| Sequence | self-splicing fitness (ln) (30 °C) | self-splicing fitness (ln) (37 °C) |
| --- | --- | --- |
| AAGAAGCAAUAUUACGAGAC | -4.15 ± 0.29 | -2.85 ± 0.25 |
| AAGAAGCAAUAUUACGAGCU | -0.998 ± 0.087 | -1.22 ± 0.11 |
| AAGAAGCAAUAUUACGAGGC | -3.86 ± 0.42 | -2.48 ± 0.33 |
| AAGAAGCAAUAUUACGAUUU | -0.181 ± 0.065 | 0.764 ± 0.1 |
| AAGAAGCAAUAUUACGCAAU | -2.08 ± 0.18 | -1.52 ± 0.2 |
| AAGAAGCAAUAUUACGCCGC | -2.91 ± 0.25 | -2.63 ± 0.26 |
| AAGAAGCAAUAUUACGCCGU | -1.1 ± 0.13 | -0.777 ± 0.15 |
| AAGAAGCAAUAUUACGCGAA | -2.18 ± 0.1 | -0.344 ± 0.093 |
| AAGAAGCAAUAUUACGCGCU | -0.931 ± 0.11 | 0.0502 ± 0.12 |
| AAGAAGCAAUAUUACGCGGA | -2.71 ± 0.16 | -0.37 ± 0.12 |
| AAGAAGCAAUAUUACGCUGU | -2.63 ± 0.13 | -1.28 ± 0.12 |
| AAGAAGCAAUAUUACGCUUC | -3 ± 0.26 |  |
| AAGAAGCAAUAUUACGGACU | 0.093 ± 0.073 | -0.443 ± 0.083 |
| AAGAAGCAAUAUUACGGGAC | -2.85 ± 0.18 | -2.63 ± 0.44 |
| AAGAAGCAAUAUUACGGUGA | -1.11 ± 0.078 | -0.329 ± 0.092 |
| AAGAAGCAAUAUUACGUAGC | -3.08 ± 0.25 | -2.32 ± 0.31 |
| AAGAAGCAAUAUUACGUAUA | -2.18 ± 0.14 | -1.17 ± 0.15 |
| AAGAAGCAAUAUUACGUCUU | -2.83 ± 0.15 | -1.63 ± 0.14 |
| AAGAAGCAAUAUUACGUGAA | -2.16 ± 0.1 | -0.97 ± 0.091 |
| AAGAAGCAAUAUUACGUGAC | -3.34 ± 0.15 | -1.67 ± 0.11 |
| AAGAAGCAAUAUUACGUUAU | -3.52 ± 0.14 | -1.88 ± 0.15 |
| AAGAAGCAAUAUUACGUUCC | -1.29 ± 0.14 | 0.0973 ± 0.19 |
| AAGAAGCAAUAUUACGUUGG | -3.25 ± 0.18 | -2.71 ± 0.23 |
| AAGCAGCAAUAUUACGAAUA | -2.44 ± 0.16 | -1.21 ± 0.12 |
| AAGCAGCAAUAUUACGAAUC | -2.44 ± 0.16 | -2.12 ± 0.2 |
| AAGCAGCAAUAUUACGACAA | -1.06 ± 0.075 | -0.277 ± 0.072 |

| Sequence | self-splicing fitness (ln) (30 °C) | self-splicing fitness (ln) (37 °C) |
| --- | --- | --- |
| AAGCAGCAAUAUUACGACAU | -0.341 ± 0.011 | -0.0663 ± 0.032 |
| AAGCAGCAAUAUUACGACCG | -1.19 ± 0.099 | -0.552 ± 0.15 |
| AAGCAGCAAUAUUACGAGAA |  | -1.29 ± 0.33 |
| AAGCAGCAAUAUUACGAGUC | -4.83 ± 0.32 | -1.87 ± 0.18 |
| AAGCAGCAAUAUUACGAGUU | -1.95 ± 0.077 | -1.07 ± 0.086 |
| AAGCAGCAAUAUUACGAUAG | -3.63 ± 0.2 | -1.45 ± 0.15 |
| AAGCAGCAAUAUUACGCAGA | -2.16 ± 0.11 | -0.306 ± 0.091 |
| AAGCAGCAAUAUUACGCAUG | -2.97 ± 0.2 | -2.27 ± 0.2 |
| AAGCAGCAAUAUUACGCGUC | -3.03 ± 0.16 | -1.7 ± 0.15 |
| AAGCAGCAAUAUUACGGCAG | -1.31 ± 0.065 | -0.525 ± 0.087 |
| AAGCAGCAAUAUUACGGCGG | -1.13 ± 0.12 | -1.01 ± 0.14 |
| AAGCAGCAAUAUUACGGGGC | -3.15 ± 0.23 | -2.54 ± 0.24 |
| AAGCAGCAAUAUUACGGGGU | -3.21 ± 0.13 | -2.56 ± 0.16 |
| AAGCAGCAAUAUUACGGGUC | -3.12 ± 0.12 | -2.61 ± 0.18 |
| AAGCAGCAAUAUUACGGUCU | -0.0787 ± 0.043 | 0.176 ± 0.063 |
| AAGCAGCAAUAUUACGGUUU | -2.78 ± 0.12 | -0.354 ± 0.096 |
| AAGCAGCAAUAUUACGUCGA | -1.03 ± 0.12 | -0.392 ± 0.11 |
| AAGCAGCAAUAUUACGUUCA | -0.676 ± 0.056 | 0.0201 ± 0.064 |
| AAGCAGCAAUAUUACGUUGA | -2.89 ± 0.13 | -1.51 ± 0.11 |
| AAGGAGCAAUAUUACGAAGA | -3.41 ± 0.29 | -3.13 ± 0.37 |
| AAGGAGCAAUAUUACGAAUG | -2.39 ± 0.22 |  |
| AAGGAGCAAUAUUACGACUC | -1.25 ± 0.15 | -0.365 ± 0.17 |
| AAGGAGCAAUAUUACGAGGU | -3.6 ± 0.23 | -3.6 ± 0.47 |
| AAGGAGCAAUAUUACGAUAA | -3.46 ± 0.25 | -1.94 ± 0.18 |
| AAGGAGCAAUAUUACGAUCU | -0.603 ± 0.085 | -0.731 ± 0.11 |
| AAGGAGCAAUAUUACGCGGG | -3.76 ± 0.46 |  |

| Sequence | self-splicing fitness (ln) (30 °C) | self-splicing fitness (ln) (37 °C) |
| --- | --- | --- |
| AAGGAGCAAUAUUACGCGUU | -2.22 ± 0.17 | -2.15 ± 0.23 |
| AAGGAGCAAUAUUACGCUUU | -3.83 ± 0.32 | -2.93 ± 0.38 |
| AAGGAGCAAUAUUACGGCUC | -4.14 ± 0.37 | -2.77 ± 0.36 |
| AAGGAGCAAUAUUACGGUAU | -3.5 ± 0.26 | -2.06 ± 0.31 |
| AAGGAGCAAUAUUACGUCAU | -3.84 ± 0.2 | -2.94 ± 0.24 |
| AAGGAGCAAUAUUACGUCGC |  | -1.49 ± 0.35 |
| AAGGAGCAAUAUUACGUGAG | -3.51 ± 0.25 | -2.5 ± 0.21 |
| AAGGAGCAAUAUUACGUGGA | -2.36 ± 0.2 | -1.75 ± 0.2 |
| AAGGAGCAAUAUUACGUUAU | -2.99 ± 0.2 | -1.59 ± 0.22 |
| AAGGAGCAAUAUUACGUUCG | -1.78 ± 0.11 | -0.665 ± 0.2 |
| AAGGAGCAAUAUUACGUUGG | -4.4 ± 0.27 | -2.5 ± 0.25 |
| AAGUAGCAAUAUUACGAACC | -1.4 ± 0.36 | -1.57 ± 0.25 |
| AAGUAGCAAUAUUACGACCC | 0.421 ± 0.3 | 0.212 ± 0.29 |
| AAGUAGCAAUAUUACGAGAU | -2.66 ± 0.16 | -1.34 ± 0.15 |
| AAGUAGCAAUAUUACGAGCA | -1.52 ± 0.15 | -0.816 ± 0.14 |
| AAGUAGCAAUAUUACGAUGU | -1.23 ± 0.1 | -0.476 ± 0.12 |
| AAGUAGCAAUAUUACGCGCA | -0.196 ± 0.11 | 0.0802 ± 0.13 |
| AAGUAGCAAUAUUACGGACC |  | -0.466 ± 0.37 |
| AAGUAGCAAUAUUACGGAGU | -2.54 ± 0.2 | -1.9 ± 0.22 |
| AAGUAGCAAUAUUACGGCAA | 0.196 ± 0.18 | -0.154 ± 0.22 |
| AAGUAGCAAUAUUACGGCAC | -1.17 ± 0.17 | -0.552 ± 0.17 |
| AAGUAGCAAUAUUACGGCGU | -0.422 ± 0.091 | 0.27 ± 0.11 |
| AAGUAGCAAUAUUACGGGAU | -3.14 ± 0.15 | -1.61 ± 0.14 |
| AAGUAGCAAUAUUACGGGCU | -2.02 ± 0.12 | -1.44 ± 0.13 |
| AAGUAGCAAUAUUACGGUGA | -1.03 ± 0.11 | -0.771 ± 0.14 |
| AAGUAGCAAUAUUACGGUUA | -0.841 ± 0.087 | -0.334 ± 0.085 |

— the supplement of paper PMC7877785
